Target: CD147 expressed on human endothelial cells (hCMEC/D3, hBMEC) and human brain sections (human) (UniProt P35613)
Test: cell-based or functional assay

| Substance | bacterial adhesion to hCMEC/D3 cells (wild-type Nm, cells pretreated with 10 µg/ml MBP-pilin) | initial attachment of Nm to hBMEC cells under flow conditions (10 µg/ml antibody) |
| --- | --- | --- |
| MBP-PilE (from UniProt P0AEX9 27-392) | 60 % reduction | – |
| MBP-PilV | 50 % reduction | – |
| anti-CD147 antibody MEM-M6/1 | – | 20 % reduction |
| anti-CD147 antibody MEM-M6/6 | – | 75 % inhibition |

From patent US20150110806A1
